# B1: TPR t1 (parent)
# chain: GACCAAUCUGCCCUCAGAGCUCGAGAACAUCUUCGGAUGCAGAGGAGGCAGGCUUCGGUGGCGCGAUAGCGCCAACGUCCUCAACCUCCAAUGCAUCCCACCACAUGAUGAUGCCUGAAGAGCCUUGGUUUUUUG
# Variants of: B1
# Assay: polymerase ribozyme fitness, log enrichment relative to wild type (log ratio); higher = more active; in vitro selection for triplet polymerase activity
# Outline: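 For each subunit of a heterodimeric triplet polymerase ribozyme, a mutant library was built by PCR and transcribed, then taken through a single in vitro selection round in triplicate. Selection involved annealing to a biotinylated primer, the partner subunit and triplets, incubation frozen at −7 °C, gel excision of extended constructs, capture on streptavidin beads and RT-PCR. Genotypes were retained after Illumina sequencing of inputs and outputs only with ≥10 input reads and ≥1 read in each output. Fitness is defined as the logarithm of a genotype's enrichment relative to wild-type enrichment, using inverse-variance-weighted averages across replicates, with the logarithm taken to base 2.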
row,Variant,polymerase ribozyme fitness (log ratio)
1,GACCUAUCUGGCCUCAGAGCUCGAGAACGUCUUCGGAUGCAGAGGAGGCAGGCUUCGGUGGCACGAUAGCGCCAACGUCCUCAACCGCCAAUGCAUCCCACCACAUGAUGAUGCCUGAAGAGCCUUGGUUUUUUG [A5U C11G A29G G63A U87G],-1.98
2,GACCAAUCUGCCCUCAGAGCUCGAGAACAUCUUCGGAUGCAGAGGAGGCAGGCUUCGGUGGCGCGAUAGCGCCAAGGUCCUCAACCUCCAAUGCAUCCAACCACAUGAUGAAGCCUGAAGAGCCUUGGUUUUUUG [C76G C99A U112A],-4.02
3,GACCAAUCUGCCCUCAGAGCUCGAGAACAUCUUCGGAUGCAGAGGAGGAAGGCUUCGGUGGCGCGAUAGCGCCAACGUCCUAAACCUCCAAUGCAUCCCACCACAUGAUAAUGCCUGAAGAGCCUUGGUUUUUUG [C49A C82A G110A],-1.04
4,GACCUAUCUGCCUUCAGAGCCCGAGAACAUCUUCGGAUGCAGAGGAGGCAGGCUUCGGUGGCGCGAUAGCGCCAACGUCCUCAACCUUCAAUGCAUCCCACCACAUGAUGAUGCCUGAAUAGCCUUGGUUUUUUG [A5U C13U U21C C88U G120U],-0.379
5,GACCAAUCUGCCCUCAGAGCUGGAGAACCUCUUCGGAUGCAGAGGAGGCAGGCUUCGGUGGCGCGAUAGCGCCAACGUCCUCAACCUCCAAUGCAUCCCACCACAUGAUUAUGCCUGAAGAGCCUUGGUUUUUUG [C22G A29C G110U],-4.24
6,GACCAAACUGCCCUCAGAGCUCGAGAACAUCCUCGGAUGCAGAGGAGGCAGGCUUCGGUGGCGCGAUAGCGCCAACGUCCUCAACCUCCAAUGCAUCCCACCACAUGAUGAUGCCUGAAGAGCCUUGGUUUUUUG [U7A U32C],0.304
7,GACCAAUCUGCCCUCAGAGCUCGAGAACAUCUUCGGAGGCAGAAGAGGCAGGCUUCGGUGGCCCGAUAGCGCCAACGUCCUCAACCUCCAAUGCACCCCACCACAUGAUGAUGCCUGAAGAGCCUUGGUUUUUUG [U38G G44A G63C U96C],-2.8
8,GGCCAAUCUGCCCUCAGAGCUCGAGAACAUCUUCCGAUGCAGAGGAGGCAGGCUUCGGUGGCGCGAUAGCGCCAACGUCCUCAACCUCCAAUGCAUCCCACCACAUGAUGAUGCCUGAAGAGCAUUGGUUUUUUG [A2G G35C C124A],-4.18
9,GACCAAUCUGCCCUCAGAGCUCGAGAACAUCUUCGGAUGCAGAGGAGGCAGGCUUCGGUGGCGAGAUAGCGCCAACGUUCUCAACCUCCAAUGCAUCCCACAACAUGAUGAUGCCUGAGGAGCCUUGGUUUUUUG [C64A C79U C102A A119G],-7.09
10,GACCAAUGUGCCCUCAGAGCUCGAGAUCAUCUUCGGAUGCAGAGGCGGCAGGCUUCGGUGGCGCGAUAUCGCCAACGACCUCAACCUCCAAUGCAUCCCACCACAUGAUGAUGUCUGAAGAGCCUUGGUUUUUUG [C8G A27U A46C G69U U78A C114U],-4.5
11,GACCAAUCUGCCCUCAGAGCUCGAGAACAUCUUCGGAUGCAGAGGAGGCAGGCUUAGGUGGCGCGAUAGCGCCAACGUCCUCAACCUCCAAUGCAUCCCACCACAUGAUGAUGCCUGAUGAGCCUUGGUUUUUUG [C56A A119U],-1.36
12,GACAAAUCUGCCCUCAGAGCUCGAGAACAUCUUCGGAUGCAGAGGAGGCAGGCUUCGGUGGCGCGAUAGCGCCAACGUCCUCAACCUCCAAUGCAUCCCACCACAUGAUGAUGCCUGAACAGCCUUGGUUUUUUG [C4A G120C],-0.842
13,GUCCAAUCUGCCCUCAGAGCUCGAGAACAUCUUCGGAUGUAGAGGAUGCAGGCUUCGGUGGCGCGAUAGCGUCAACGUCCUCAACCUCCAAUGCAUCCCACCACAUGAUGAUGCCUGAAGAGCAUUGGUUUUUUG [A2U C40U G47U C72U C124A],-3.11
14,GACCAAUCUGCCCUCAGAGCUUGAGAACAUCUUCGGAUGCAGAGGAGGCAGGCUUCGGUGGCGCGAUAGCGCCAACGUCCUCAACCUCCAAUGCAUCCCACCACAGGAUGAUGCUUGAAGAGCCUUGGUUUUUUG [C22U U106G C115U],-6.69
15,GACCAAUCUGCCCUCAGAGCUCGAGAACAUCUUCGGAUGUAGAGGAGGCAGGCUUCGGUGGCGCGAUAGCGCCAACGUCCUCAACCUCCAAUGCAUCCUACCACAUGAUGAUGCCUGAAGAGCCUUGGUUUUUUG [C40U C99U],-3.93
16,GACCAAUCUGCCCUCAGAGCUCGAGAACAUCUUCGGAUGCAGAGGAGGCAGGCUUCGGUGGCGCGAUAGCCCCAACGGCCUCAACCUCCAAUGCAUCCCACCACAUGAUGAUGCCUGAAGAGCCUUGGUUUUUUG [G71C U78G],-3.19
17,GACCAAUCUGCCCUCAGAGCUCGAGAACGUCUUCGGAUGCAGAGGAAGCAGGCUAGGGUGGCGCGAUAGCGCCAACGUCCUCAACCUCCAAUGCAUCCCACCACAUGAUGAUGCCUGAAGAGCCUUGGUUUUUUG [A29G G47A U55A C56G],-2.62
18,GAUCAAUCUGCCCUCAGAGCUCGAGAACAUCUUCGGAUGCAGAGGAGGCAGGCUUCGGUGGCCCGAUAGCGCCAACGCCCUCAACCUCCAAUGCAUCCCACCACAUGAUGAUGCCUGAAGAGCCUUGGUUUUUUG [C3U G63C U78C],-3.19
19,GACCAAUCUGCCCUCAGAGCUCGAGAACAUCUUCGGACGCAGAGGAGGCAGGCUUCGGUGGCGCGAUAGCCCCAACGUCCUAUACCUCCGAUGCAUCCCACCACAUGAUGAUGCCUGAAGAGCCUUGGUUUUUUG [U38C G71C C82A A83U A90G],-2.39
20,GACUAAUCUGCCCUCAGAGCUCGAGAACAUCUUCGGAUGCAGAGGAGGCAGGCUUCGGUGGCGCGAUACCGCCAACGUCCUAAACCUGCAUUGCAUCCCACCACAAGAUGAUGCCUGAAGAGCCUUGGUUUUUUG [C4U G69C C82A C88G A91U U106A],-5.66
21,GACCAAGCUGCCCUCAGAGCUCGAGAACAUCUUCGGAUGCAGAGGAGGCAGGCUUCGGUGGCGCGAUAGCGCCAACGUCCUCAACCUCCAAUGCAUCCCACCACAUGAUCAUGCCUGAAGAGCAUUGGUUUUUUG [U7G G110C C124A],-4.31

# From the RNAGym collection of RNA variant scans (doi:10.1073/pnas.2313332121)
